Target: T1, VP16-AR containing the residues 37 to 919 (human), P10275
T1 chain: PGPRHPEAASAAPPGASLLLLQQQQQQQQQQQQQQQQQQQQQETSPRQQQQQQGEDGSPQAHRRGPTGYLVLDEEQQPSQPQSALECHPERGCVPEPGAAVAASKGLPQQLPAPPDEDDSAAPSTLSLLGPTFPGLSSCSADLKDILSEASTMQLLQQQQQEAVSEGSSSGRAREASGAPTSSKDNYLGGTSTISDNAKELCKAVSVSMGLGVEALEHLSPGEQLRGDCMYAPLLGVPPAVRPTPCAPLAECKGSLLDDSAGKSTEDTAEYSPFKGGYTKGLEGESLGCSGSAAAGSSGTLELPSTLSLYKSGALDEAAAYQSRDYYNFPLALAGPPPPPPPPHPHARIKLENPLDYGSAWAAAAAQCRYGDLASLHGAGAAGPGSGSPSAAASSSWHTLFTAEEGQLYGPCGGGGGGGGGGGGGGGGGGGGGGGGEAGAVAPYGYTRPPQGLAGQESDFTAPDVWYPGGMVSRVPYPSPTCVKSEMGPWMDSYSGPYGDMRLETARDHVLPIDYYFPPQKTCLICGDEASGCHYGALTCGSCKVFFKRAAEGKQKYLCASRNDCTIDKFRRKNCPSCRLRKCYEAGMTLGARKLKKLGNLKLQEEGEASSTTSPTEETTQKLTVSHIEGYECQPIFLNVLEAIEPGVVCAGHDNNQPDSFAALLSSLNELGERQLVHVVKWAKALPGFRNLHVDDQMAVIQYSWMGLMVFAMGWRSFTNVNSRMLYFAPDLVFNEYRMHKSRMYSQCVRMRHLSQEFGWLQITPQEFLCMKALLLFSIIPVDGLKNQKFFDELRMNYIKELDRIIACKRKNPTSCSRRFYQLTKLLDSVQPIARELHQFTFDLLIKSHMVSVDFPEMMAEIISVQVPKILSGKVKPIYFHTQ
Assay: cell-based or functional assay

Binder: HPTHSSRLWELLMEATPTM (modifications not checked) [D30 peptide (…), LXXLL motif peptide]
- two-hybrid peptide assay (pG4-LUC reporter, PC-3 cells, with against without 10 nM DHT): 350 fold

— US20080050387A1, “Non-Androgen Dependent Roles for Androgen Receptor and Non-Androgen Related Inhibitors of Androgen Receptor” (priority 2003, published 2008)
